Test results: US20110159009A1 (published 2011)

How the values were obtained:
B20.4.1 [1] = assay: SPR (BIAcore); FIG. 10; 37 C; ~60 RU VEGF immobilized; bivalent model
B20.4.1 [2] = assay: SPR (BIAcore); FIG. 11; 37 C; ~1000 RU VEGF immobilized; 1:1 Langmuir model

B1: hVEGF (ligand)
chain: APMAEGGGQNHHEVVKFMDVYQRSYCHPIETLVDIFQEYPDEIEYIFKPSCVPLMRCGGCCNDEGLECVPTEESNITMQIMRIKPHQGQHIGEMSFLQHNKCECRPKKDRARQENPCGPCSERRKHLFVQDPQTCKCSCKNTDSRCKARQLELNERTCRCDKPRR
For B1, the Kd (B20.4.1 [1]) was 0.02 nM and the Kd (B20.4.1 [2]) was 1.16 nM.

B2: mVEGF (ligand)
chain: APTTEGEQKSHEVIKFMDVYQRSYCRPIETLVDIFQEYPDEIEYIFKPSCVPLMRCAGCCNDEALECVPTSESNITMQIMRIKPHQSQHIGEMSFLQHSRCECRPKKDRTKPENHCEPCSERRKHLFVQDPQTCKCSCKNTDSRCKARQLELNERTCRCDKPRR
Work on B2 yielded a Kd (B20.4.1 [1]) of 0.37 nM and a Kd (B20.4.1 [2]) of 2.26 nM.
